Measurements as given in US20200181258A1.

Target: canine FcRn-β2M complex (canine)
Assay: SPR, antibody captured on Protein L, soluble FcRn 920 and 460 nM, pH 6.0, 25 C

Question: YTE-b12 canine IgGB (antibody) was tested. Which Kd did it give?
Answer: 150 nM
